Measurements taken from patent publication US20250215092A1 (ZHEJIANG NANOMAB TECHNOLOGY CENTER, published 2025).

Columns and labels:
[1] = molecular target: T1, EGFR-D4 (F481-S645, P00533-1 (uniprot)) his tag antigen (human, UniProt P00533 481-645); assay: ELISA: EGFR-D4 his tag antigen coated at 0.5 µg/mL, antibody at 2000, 200, 20, 2 nM, HRP goat anti-human IgG Fc, OD450
T1 construct: range 481-645; also called IV domain protein; EGFR-D4 protein; not shown: His tag
Procedure: (§1) (2) Protein Binding Epitope Analysis: ELISA was used to determine the binding of VHH-IgG4 antibody to each domain of EGFR extracellular protein. Briefly, EGFR his tag protein, and EGFR-V3-his tag antigen protein were diluted to 1 μg/mL, EGFR-D1D2 (L25-A310, P00533-1 (uniprot)), and EGFR-D4 (F481-S645, P00533-1 (uniprot)) his tag antigen were diluted to 0.5 μg/mL, and each well of an ELISA plate was coated with […] antigen and incubated overnight at 4° C. The next day, the plates were washed twice with PBST (added with 0.5% TWEEN-20), then blocked with 3% BSA at 37° C. for 1.5 h, and then washed twice with PBST. Then, the antibody to be tested was diluted to 50 nM, 5 nM, 0.5 nM, 0.05 nM, and added to the wells coated with EGFR his tag protein or EGFR-V3-his tag antigen at 100 µL/well, respectively. The antibody was diluted to 2000 nM, 200 nM, 20 nM, 2 nM, and added to the wells coated with EGFR his tag protein or EGFR-V3-his tag antigen at 100 µL/well, respectively. The ELISA plates were incubated at 37° C. for 1 h. The plates were then washed three times with PBST, and then 100 μL HRP labeled Goat anti human IgG Fc antibody (1:10000, Bethyl) was added into each well, and incubated at 37° C. for another 40 min. After washing the plates four times with PBST, 100 μL of TMB substrate was added to each well, and the reaction was allowed to proceed for 3-5 min. The reaction was stopped by adding 100 μL of 3N hydrochloric acid per well. After stopping the reaction, the optical density at 450/650 nm was measured using a Tecan microplate reader.

[2] = molecular target: T2, Rhesus macaque EGFR Protein, His Tag (Acro, Cat #EGR-C52H1) (rhesus macaque, UniProt P55245 25-645); assay: ELISA, coated antigen 1 ug/mL, antibody 50 nM
T2 construct: extracellular domain; Bought protein; also called Monkey EGFR; not shown: His tag
Procedure: (§2) ELISA was used to identify the binding of VHH-IgG4 antibodies to the extracellular domains of mouse EGFR, monkey EGFR, and human EGFR proteins. The detection steps were as follows: Mouse EGFR Protein, His Tag (Acro, Cat #EGR-M5224) and Rhesus macaque EGFR Protein, His Tag (Acro, Cat #EGR-C52H1) were diluted to 1 μg/mL with phosphate buffer, and 100 μL of each dilution was added to a 96-well ELISA plate and coated overnight at 4° C. The next day, the plates were washed twice with PBST (containing 0.5% TWEEN-20) and then blocked with 3% BSA at 37° C. for 1.5 h, followed by two washes with PBST. VHH-IgG4 antibodies were diluted to 50 nM, and 100 μL of the dilution was added to each well and incubated at 37° C. for 1 h. The plates were then washed three times with PBST, and 100 μL of HRP-labeled goat anti-human IgG Fc antibody (1:10000, Bethyl) was added to each well and incubated at 37° C. for another 40 min. After washing the plates four times with PBST, 100 μL of TMB substrate was added to each well, and the reaction was allowed to proceed for 3-5 min. The reaction was stopped by adding 100 μL of 3N hydrochloric acid per well. After stopping the reaction, the optical density at 450/650 nm was measured using a Tecan microplate reader.

[3] = molecular target: T3, Mouse EGFR Protein, His Tag (Acro, Cat #EGR-M5224) (mouse, UniProt Q01279 25-647); assay: ELISA, coated antigen 1 ug/mL, antibody 50 nM
T3 construct: extracellular domain; Bought protein; not shown: His tag
Procedure: as §2

[4] = molecular target: T4, EGFR-D1D2 (L25-A310, P00533-1 (uniprot)) his tag antigen (human, UniProt P00533 25-310); assay: ELISA: EGFR-D1D2 his tag antigen coated at 0.5 µg/mL, antibody at 2000, 200, 20, 2 nM, HRP goat anti-human IgG Fc, OD450
T4 construct: range 25-310; also called I+II domain protein; EGFR-D1D2 protein; not shown: His tag
Procedure: as §1

[5] = molecular target: T5, human EGFR.His antigen (Acro, Cat #EGR-H522a) (human, UniProt P00533 25-645); assay: ELISA: EGFR his tag protein coated at 1 µg/mL, antibody at 50, 5, 0.5, 0.05 nM, HRP goat anti-human IgG Fc, OD450
T5 construct: extracellular domain; Bought protein; also called EGFR his tag protein; full-length EGFR extracellular domain protein; not shown: His tag
Procedure: as §1, with “After washing the plates four times with PBST, 100 μL of TMB substrate was added to each well, and the reaction was allowed to proceed for 3-5 min. The reaction was stopped by adding 100 μL of 3N hydrochloric acid per well.” left out

[6] = molecular target: T6, Region III of EGFR expressed on HEK293T cells (human, UniProt P00533); assay: flow cytometry on HEK293T cells expressing EGFR region III, anti-human IgG PE, MFI, curve fit; unit from the concentration axis and paragraph 62 [table]
T6 construct: also called HEK293T EGFR-III cells; stably transformed cell line 293T overexpressing EGFR III region protein
Procedure: HEK293T cells that express Region III of EGFR (i.e., HEK293T […] cells) were plated in a 96-well plate with 3×10⁵ cells/well, and then HEK293T […] cells were incubated with gradient diluted VHH-IgG4 antibody. After incubation for half an hour, anti-human IgG PE (Jackson Immuno Research, Code: 109-117-008, Lot:145501) as the secondary antibody for detection was added for incubation, and then CytoFLEX flow cytometer was used for detection. The EC50 of the antibody was calculated by curve fitting with Graphprism8.0 software. Isotype 1 in the figure is a negative control, and its amino acid sequence is shown as SEQ ID NO: 2 in CN106046152A.

[7] = molecular target: T7, EGFR on SKOV3 and Aspc-1 tumor cells (human, UniProt P00533); assay: flow cytometry on SKOV3 tumor cells, anti-human IgG PE, MFI, curve fit; unit from the concentration axis and paragraph 62; the curve still rises at the highest concentration (MFI about 9700 at about 250 nM) [table]
T7 construct: endogenous, on the cell surface; the cell line is named under assay; also called tumor cell EGFR
Procedure: (§3) Two kinds of tumor cells, SKOV3 and Aspc-1, expressing EGFR were respectively plated in 96 well plates, with 3×10⁵ cells per well, and then the tumor cells were incubated with gradient diluted VHH-IgG4 antibody. After incubation on ice for half an hour, anti human IgG PE (Jackson Immuno Research, Code: 109-117-008, Lot:145501) was added for incubation, and then CytoFLEX flow cytometry was used for detection. The EC50 of the antibody was calculated by curve fitting.

[8] = molecular target: T5, human EGFR.His antigen (Acro, Cat …); assay: SPR, antibody captured on protein A, EGFR.His in flow
Procedure: The binding kinetics and affinity of candidate antibody to human EGFR.His antigen were determined using surface plasmon resonance (SPR). The purified antibody was flowed through the sensor chips pre-immobilized with protein A, and the antibody was captured by protein A. Then five different concentrations of EGFR.His protein were used as the mobile phase, and the binding time and dissociation time were […], respectively. The binding rate (kon), dissociation rate (koff), and equilibrium constant (kD) were analyzed using Biacore Evaluation Software 2.0 (GE). EC225, an antibody that binds to region III of human EGFR, was selected as a positive control (sequence source https.//go.drugbank.com/drugs/DB00002).

[9] = molecular target: T7, EGFR on SKOV3 and Aspc-1 tumor cells; assay: flow cytometry on Aspc-1 tumor cells, anti-human IgG PE, MFI, curve fit; unit from the concentration axis and paragraph 62; the curve still rises at the highest concentration (MFI about 9000 at about 250 nM) [table]
Procedure: as §3

[10] = molecular target: T7, EGFR on SKOV3 and Aspc-1 tumor cells; assay: flow cytometry on SKOV3 tumor cells, anti-human IgG PE, MFI, curve fit; unit from the concentration axis and paragraph 62 [table]
Procedure: as §3

[11] = molecular target: T7, EGFR on SKOV3 and Aspc-1 tumor cells; assay: flow cytometry on Aspc-1 tumor cells, anti-human IgG PE, MFI, curve fit; unit from the concentration axis and paragraph 62; no upper plateau within the range shown [table]
Procedure: as §3

B1: E009 VHH-IgG4 antibody (antibody, V domains shown, not shown: a dimerising Fc or GST)
VH: QVQLVESGGGLVQPGGSLRLSCEASGRIDIIFTMGWYRQTPGNEREFVASVTNYNAKYADSVKGRFTISRENTENTAYLQMNSLKPEDTAIYVCHLNYASDYTEYDYYGQGTQVTVSS
[1]
  binding result: no binding (tested: 2000 nM)
[2]
  OD450: 3.36 OD450
[3]
  OD450: 0.08 OD450
[4]
  binding result: binds
[5]
  binding result: binds

B2: E001 VHH-IgG4 antibody (antibody, V domains shown, not shown: a dimerising Fc or GST)
VH: EVQLVESGGGLVQPGGSLRLSCTPSGSGFTIQAMTWYRQAPGKQRELVAIIHQGGSTDYSDSVRGRFTISRDNAKTAWYLQMNNLKPEDTAVYYCNVVPPLRVWGQGTQVTVSS
[6]
  EC50: 0.32 nM
[7]
  EC50: 74 nM
[2]
  OD450: 3.3 OD450
[3]
  OD450: 0.76 OD450
[4]
  binding result: no binding (tested: 2000 nM)
[8]
  Kd: 0.206 nM
  koff: 1.2e-05 s⁻¹
  kon: 57900 M⁻¹ s⁻¹
[9]
  EC50: 58 nM

B3: E006 VHH-IgG4 antibody (antibody, V domains shown, not shown: a dimerising Fc or GST)
VH: EVQLVESGGGLVQPGGSLRLSCTASGFTFDTYTTSWERQAPGKEREMVAVLATTGGKPYYVESVKGRFTISRDASETAVTLQMNNLKPEDTAVYYCKATSRSPVNPHNYSGQGTLVTVSS
[6]
  EC50: 0.5 nM
[10]
  EC50: 11 nM
[2]
  OD450: 3.3 OD450
[3]
  OD450: 3.13 OD450
[4]
  binding result: no binding (tested: 2000 nM)
[11]
  EC50: 12 nM
[8]
  Kd: 6.82 nM
  koff: 0.000255 s⁻¹
  kon: 37400 M⁻¹ s⁻¹
